# From the DeepSol protein solubility set
# Test: soluble on expression in E. coli; label from the status in PepcDB or PDB records
row,Sequence,soluble on expression in E. coli
1,MGSDKIHHHHHHMTFLRALLGATGQTLRAALAGLTVKPHSGHPVFPVTWVTPHIAAGPAPVSAAHLEALREQGIVAILNVCEELCTLADTEEAAGFEVRFLPIEDEGAPEPDALEEVLDWLDESVWRGRKVYVHCRWGVGRTGTVLHAYLLRRGLSPRRAEHFLSRLRSRPTSYTQWRSLRRFARRNPALTVREAAVEPGVADAMTPVLRDLARLVQEVERHVEAATPGISPEAFADAPRCGRDHVRCCATPPTLTLAEAAALTAAMDALLSSTQRDELRQKTSRGSGVPCPLLHDQRCLLYEARPLRCRTADMDETARLRLLEEVVADTLDDLDRRVFGLLAGCTPATSPPCFPIVEVLSGRYVATTFRHVACGLNTGKP,not soluble
2,MGSDKIHHHHHHMTFVKKALSPDEYGEVLFQHDWMRGEPSDVVCELLAKSERLFFRQDDVLFREGDKMQHCLLVETGKLQAFRHTYGGDEKIFGQFERGEFVAIAAVFMDHGRFPMNIRALSDGHTLMIPRQDIHQFCLQRPELALRLLNYLGKKLYSTINQIDWLTSSSAPQRLADYLLRQHHIQQTQHLTLPVSRGQLATSLGMRGETLSRLMSDWKRQGHITYRGHQVELCDLNYLKELAAEARRTF,not soluble
3,MGSDKIHHHHHHMTGAQPVILGDMPSLSKLYVNAAATAARRRVLGTGTGISLPPCGHEVRGVVADVGNLTAFQHLVGETASDTLPAGFIHALAFPVSMSVMNRDDFPLPLLGMVHLKNKVEQHGTILFTEALDITSWAESLRGHRAGTQVDIVAEVRRSGDAKVLWKGTSTYLAKGVFLPGIDKPSVPAPPATFSAPDPTALWELGVDTGRAYAAVSGDFNPIHLSVLSAKALGLRRSIAHGMYLASRALADVGAVKGESFSWEVSFETPVFLPARVALDISSVDSPSGAWQHSDYAAWNPRSGRRHFSGSVTALQGQD,not soluble
4,MGSDKIHHHHHHMTHLDDMALFVEVVKAKGFRGAADALGMPNSTLSRRIGALEKAIGLRLLHRTTRKVEPTEAGLLYYERSKRIVEEARLVHEQLGEMLAQPSGLLRASFPEGFANIFLAPLVAEFARRYPGIRFEFDLSPRLADLVSDPVDVAIRMGEPANSNLIARQLARLPRHLYASPRYLDMLGEPQHPDELVQHECLRLRGSKSDIWTVQNRDETVDVAVGGRFLLNSVGMIQRLAALDMGIAILAESIVTDDVAQGRLRRVLPQWEATPVPVYALTETRLLPAKTQRFIDFLREHLSSI,not soluble
5,MGSDKIHHHHHHMTHQANDAVAPASGMIELSHSFDANRFLAAVDRDERATLIANLQLVHLKSGQVLCEPGEMLTAVYLPVTTAISLQYVSTGGMTLEVAQIGSESVVCDDVIGGSGRMPCRAVACRDGFVYRLDRRIFAAAFDASPVIRHLVFVCVRLLMAQVAQITFCSRHHVLKHQLCRWFLLAYDRSRSIEIQVTHSMLAQMLGVRRETVTDAAGEIQRLGLIRQYRSSIVLADLAGLEKLSCGCRAIVRDEMKRILSADSGVSAAARA,not soluble
6,MGSDKIHHHHHHMTHSTDITTLARWFAADFSNQQQAFDNPPLFAHIRVCMRPLPYQLLNGLSLYLEQAYDITLNQPYRVRVLKLVPSENHIEIENYIIDQEAEFYGASRDPQRLKNLKTEYIKKLPGCTFITKWTGKSFKGEVEPGKGCTVVREGKSTYLKSYFEINEHKFISHDTGYDPETDQQVWGAIAGPFEFVRWASFADEVI,not soluble
7,MGSDKIHHHHHHMTIQKHFPTVEMADIHFELIGGLSSQSWRIRGPGIEWLARRQSPVERKMGVDRQREFALLRQMSAVGLAPRPLLWRDGWLIVEWVPGRIATSDEFLMMLANGEVARVLSQLHRQPRSGHPLNFKILFAQHWQLMDPCRRSPALLRAHHHFQRAALPTPLALVPLHLDVHAENLLITPQGTMLIDWEYASDGDIAFELAFIVRASQMDSVAQTYFLQSYQRHRRGFSVSRLQQQMMQWFPWVDYLVLMWFEVRWQQTKNLEFLAEIPALRHRLQLG,not soluble
8,MGSDKIHHHHHHMTITTQSLPVVRRHTIHFLEKAKNSQAVYLSTDIDASRIQEVKRRYEQASIKISYISFLLFAISRAIEVFPEVNSSVQGRWHLKRWQFSTIDAKVTLDKLAGQERMVVSSVIPETNKKSLLAIQDEINELKIASFETSDRFQSIRKLQRLPLWIGRIIYRKILQNPITWQQTQGSFTITSLGHVPIQSFFPITTNTVCFGVGSIRECAVVREGQVVVRPMLPLSMTFDHRAIDGALASEFLYRIKQNVEEWEVEAWEDDQKNQAMM,not soluble
9,MGSDKIHHHHHHMTIYSPDTINFNGVNGDRYWFDEPFPYTGVGDIDERLSGFPVAVFLPHHRPRQETPLVIGLQGMCAPYGWNAFIVPTLTEMGIAVALFDPPLSGERSLVRTSTTLVQNEIKPLIDRGIPFDTALFLSIFRTTARDISKIREFCGDRYGLTDSRLALFGVSMGVLLSAYAFTANSLGDRLLGTIGHADLPSFAKSWGRPFLPDLAASPLGGLAESLLQRLQPDLAPLFQLLRLTKNLKYQDEYAWDCNPMNYIQQVDSHRRVRFLVGANDSIVKIKDARACAQKFPDGDCYVVPGMGHGTRQSGVSFVDHVRYFLATQLGDWCG,not soluble
10,MGSDKIHHHHHHMTKARDDRYNFGFLDENTKRMLRRSLLKAVAIPGYQVPFGSREMPLPYGWGTGGIQLTASVIGRDDVLKVIDQGADDTTNAVNIRRFFGRVAGVATTTRTADATLIQTRHRIPETPLKPGQILIFQVPEPEPLRTLEASEVETRKLHAHQEYGLMHVKLYEDIARFGHIATSYDYPVMVNDRYLASPSPIPKFDNPKLDMNPALLLFGAGREKRLYAIPPYTKVESLAFDDHPFEIQSWQQGCAICGSHDSYLDEIVIDDAGSRMFVCSDTDYCQREKQA,not soluble
11,MGSDKIHHHHHHMTKDDQKELGKTLWAIADQLRGSMNADDFRDYMLSFLFLRYLSDNYEAAAKKELGSDYPDAKTIGNSDKTPLSVWYASNPGDVAAFEQQMRRKAHYVIKPKYLWGNIVNLAKKQNHDLLDTLQQGFKHIEEDSFESEFQGLFSEINLASDKLGRKYDDRNAKLCSIISEIARGMALSAKTDSLGDAYEYLIGQFAAGSGKKAGEFYTPQEISNILSAIVTLDSQEPKTGPRGKLDSVFDFACGSGSLLLNIRNRMTNSGGSIGKIYGQEYNVTTYNLARMNMLLHGVKDTEFEIYHGDTLKNDWDWLRETNPAKKPRFDAVVANPPFSYRWEPGEAMAQDARFKNHGVAPKSAADFAFLLHGLQYLKDDGVMAIILPHGVLFRGGKEADIRRKLLDDGHIDTVIGLPANLFYSTGIPVCILVLKKCKKPDDVLFINAAGHFAKGKRQNQLTDEHIQRIVNTYQNRNKQDRYSRCVSMKEIADKDYNLNISRYVSTAEADKEIVLEAVHADLTAIESRLEESKKRHNAFLVELGLKPLP,not soluble
12,MGSDKIHHHHHHMTKHIHWDGNLSQEGFEIVKGEGGVIVCPTKVGYIIMTSDKKGLERKFEAKKRNRNKPGVVLCGSMEELRALAQLTPEIDAFYQKHWDEDILLGCILPWKAEAYEKLKAYGDGREELMTDIRGTSCFVIKFGVAGEQIAKEMWEKEGRMVYASSANPSGKGNRGKVEGIGERIESMVDLVIEADDYVASIQPDKTIETRYEQGVMVSMVDKDGKLIPQQGADSRSVEPCPVVIRKGLDIDKIMMHLSDQFNSWNYRQGEYY,not soluble
13,MGSDKIHHHHHHMTKHMTMKTPPIVSRQEWDAAREKMLVKEKATLRAKDALAAERRRMPWMEVDKAYVFEGPNGKASLLDLFEGRRQLIVYRAFFEPGVYGWPDHACRGCSLGADQVGHLAHLNARNTTLAYASRAPQADIVRLKARMGWEMPWYTITDSFDKDFGVDEWHGHNVFIHDGDRVFRTYLINSRGDEQMGTVWSYLDATPLGRQEIWEDSPEGYPQTPLYSWWNWHDNYEAGADKKWAEVAAAGEAAFRDKGE,not soluble
14,MGSDKIHHHHHHMTKHQNFIETKEYKRFAEFCDACIKYQYIGICYGQPGVGKTLSSRYYTNWNTIEKQVNHRGWEDLASKTTDDILSVNKIFYTAPAEKQTRLSNDLYSISASIDLGQKLHIVNKYGHDHSKHYSDMFKYIDLIIVDEIDRLKVQHLEQLRAIYDEHNLAMIFIGMPGIEKKLSRYPQLYSRIGFAHEFDNLSKDETHHILEYKWQDLGFDLKLEDFTDYEAITTIIKITKGNFRLIHRLFAQIDRIMDINGLDKISTEVVETARDSLVIGIR,not soluble
15,MGSDKIHHHHHHMTKPLINLVHANGFPAGSYKTFLQEFDNDFRTIAHNQFGHNVLYPIHNNWQHLVTELVEFIKKQDEKVICVGHSFGGVISFIAACQHPELFRGLVMLDPPVVTGAFSHLLSFIKRTPYIDKLSPAGKAKTRQNQWPENTNLVDYFSQKTLFKNFDSRCLQDYASSSVVLRNKRLELSFSPAVEADIFRHLPTNLVKYKNKLTVPAKLIYGEKTQIFPIKHFVRFAKLNDIELMTLPNGGHMFPLEQPENTANMVKQIIKDW,not soluble
16,MGSDKIHHHHHHMTKRILEVNVDDNGYSGVYSLIKRVIENKPADYQIDLACLEPFESQQNIDYLNKLGTQVYYIGYPGNKIKKQLKYYEKLQKVVKDGNYDYVHIHGDVANKLYVTALAARKADSGVKIILQSHASDVDGSHRQLKRFIHKSLRGKLVKLADCYVSVSDLASNWMFPSIPKSQVIKIMNGVDLAAFRYDPIIRKRIRKELGLSRKHVLGHIGRFAYQKNHQYLIQVFAKVYAQDPQARLLLVGKGDLQDECKHQVHDLGLDKQVIFYGLSSNTSELFQAMDVFLLPSHFEGLPIVGVEAQAAGLPVIFSDQITSEAKMTNNVSFLPIDETSLSAWQSQVIKDLELGHRDDYDLLSRQKLDITDTVAAFMKLYNS,not soluble
17,MGSDKIHHHHHHMTLLDEAVVLNDGSLMPKVGVVVGNKPADDAIKAGYRLIDCSLDQKTKLKAENPQLYVEVQVPEDVITRDDFKKIRQDIIDHHADLCLLKLSDNKEKNGQIWQELEQLKIQGWIKNIGVINISVDALNELLNHTQVRPCVAQISYEDQGLINLARENRIQVEIPVHGDINALAEIASHYGTSSVELVMRYFSQKGIVPLFEIEDVVENPRINFTINAEDLATIGQLFAQK,not soluble
18,MGSDKIHHHHHHMTLPIDTPAVLVDLNVAEANVRAFQSYCDRHSLKMRPHIKTHKLPQLAEYQIAQGAIGITCQKITEAEAMVAGGDMRDILITYNILGAEKVARLRALSERVALSVVADNLTVVEGLSAGFAGANKPLPVLVECNTGADRCGVETPEAALALAQAIDAAPGLKFAGLMTYPPVGGAAKVTTWLAEAKARIEATDLTVEVISSGGSPDMWQAHEMPLATEYRVGTYVYNDRSLVTRGICTWDDCALTVLATVVSTPSATRAVIDAGSKVLTSDLLGLEGYGHVLGYPDFMIDQLSEEHGRITSAQPTGLRVGDQVRIVPNHACVVANMLDHITLMRAEEVAGQETVAARGQVW,not soluble
19,MGSDKIHHHHHHMTMTNTPRQDSPFEKPVRVRAGFSLTFDVPYATPMIFVVQPQDRLSPTGTRQRIIDQRPLAAAEGIHTYTDTHGNLIWRTVAQPGEFTIGHDLIAEIERRPDPQLPGLRKMMVEELPDDVLQYLLPSRYVDSDLVSAEAWERFGNVQGGWAQVQAVCDYLFDTCVYGYGSNSTTTASQALGSGRAVCRDFAHMGVAFCRALNIPARYVCGYMPDIDYPPDPVPMDFHAWFEAFIDGEWRTFDARHNIPRTGRVLIAQGRDASDVAFTTSFGSAKLVNMKVWADETDFDNTLDIAPNPRIF,not soluble
20,MGSDKIHHHHHHMTNEQDPKQNHLLSVLPEAEWARISPHLVRIDMPLGQVIYESGDRLHHVYFPTTSIVSLLYVMEDGSSAEIAIVGNEGLIGIALFMGGETTPNRAIVQSAGEAYRLDARILKQEFHRAGPVQRLLLRYTQALITQMAQTAVCNRHHSIDQQLCRWLLLSLDRLPSNELRMTQELIANMLGVRRSGVTEAALKLQDAGLIRYSHGHIEVLDRPGLEKRVCECYNVVKQEFDRLLPDLKAL,not soluble
